From paper PMC8263589, “The role of membrane destabilisation and protein dynamics in BAM catalysed OMP folding” (Nature Communications, 2021)

Key:
[1] = molecular target: WT BAM complex (BamABCDE-His6) (Escherichia coli K-12); test: cryo-EM structure; purified BAM (WT or BAM-LL) mixed with Fab1 in DDM micelles, pH 8.0, 150 mM NaCl; WT BAM with a 2-fold molar excess of Fab1, complex isolated on Superdex 200; BAM-LL and Fab1 mixed 1:1; settings: both partners purified
[2] = molecular target: BamA, as the subunit of WT BAM (Escherichia coli K-12); test: as above; settings: both partners purified

binding result [1]: binds | binding result [2]: binds
B1: Fab1, anti-BamA monoclonal antibody Fab fragment (Fab, V domains shown)
VH: EVQLVESGGGLVQPGRSLKLSCVASRFTFSNYGMNWIRQTPGKGLEWVAYIGSTSSHIYYAETVKGRFTISRDNAKNTLYLQMTGLRSEDTALYYCVGHVRKLGAFFDYWGQGAMVTVSS
VL: DIQMTQSPASLSASLGETVTIECRASEDIHSRLAWYQQKPGKSPQLLIYNANSLHTGVPSRFSGSGSGTQFSLKINSLQSEDVASYFCLQYYNYPPYTFGAGAKLELR
notes: heavy chain of Fab1 in the crystal structure deposited here (PDB 7BM5); light chain of Fab1 in the crystal structure deposited here (PDB 7BM5); also called bactericidal Fab fragment; Fab of MAB1; source: E. coli, purified (Protein G, SP Sepharose, Superdex 75)
